We go through one molecule from publication PMC13462943.

The target in experiment [1] is T1, N-terminal histone H3 peptide (amino acid residues 1-20), P68431. As to the kind of experiment: native mass spectrometry. The following applies: chain shown with the change, protein and substrate concentrations 5 µM.
Experiment [2] has as its target T1, N-terminal histone H3 peptide (amino …). As to the kind of experiment: differential scanning fluorimetry. The conditions noted are these: chain shown with the change; 500 µM histone H3 peptide; parent: est. 4.4; read off a plot.
Experiment [3] has as its target T2, G9a methyltransferase domain (aa residues 913-1193), Del 1163-4, Q96KQ7-1.
T2 chain: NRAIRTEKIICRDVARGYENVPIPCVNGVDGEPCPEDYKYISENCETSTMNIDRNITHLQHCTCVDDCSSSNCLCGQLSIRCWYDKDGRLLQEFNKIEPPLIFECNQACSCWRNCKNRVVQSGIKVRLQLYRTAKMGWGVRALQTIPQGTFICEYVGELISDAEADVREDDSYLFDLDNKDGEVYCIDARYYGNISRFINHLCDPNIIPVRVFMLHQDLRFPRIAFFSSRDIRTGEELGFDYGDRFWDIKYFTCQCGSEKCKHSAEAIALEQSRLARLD
As to the kind of experiment: native mass spectrometry (nESI-MS). The following applies: chain shown with the change;; read off a plot.

B1: G9a methyltransferase domain (aa residues 913-1193), wild type, Q96KQ7-1 S1163del; K1164del (protein)
chain: T2 chain
Take B1: the other: relative abundance, 2x peptide bound in experiment [1] (parent: 24) was less than 1. For the same molecule, the other: relative abundance, free protein in experiment [1] (parent: 30) was found to be 88. In addition, the other: relative abundance, 1x peptide bound in experiment [1] (parent: 46) was found to be 11. In addition, the other: ΔTm upon substrate addition in experiment [2] was found to be 2.3 °C. For the same molecule, the ratio to parent in experiment [3] was found to be 0.58.
